The test has as its target GST-Nup153 (human wt Nup153) (human). The test can be described thus: co-IP; competition: 200 ng P-rC with 200 ng GST-Nup153 and different concentrations of importin β together, 2 h at 37°C in transport buffer; anti-capsid beads; mAb414 blot.

The substance “importin β (karyopherin) (from UniProt Q14974 1-876) (natural protein)” had a molar excess of importin β that prevented Nup153 binding to P-rC of more than 150 fold.
